Target: human FcγRIIIa-V158 (CD16a, V158 allotype) (human) (UniProt P08637)

EC50 of the in vitro ADCC assay (luminescence, Bio-Glo reagent; BT-474 target cells, Jurkat cells): 0.017 µg/mL
Substance: P-TMab (trastuzumab produced by the glycoengineered rice cell line PhytoRice, line PHYTO101) (antibody)
